Results: the supplement of paper PMC9112550, “Optimization of the antimicrobial peptide Bac7 by deep mutational scanning” (BMC Biology, 2022)

Test system: Escherichia coli TOP10
Test: shrunken log2 fold change of peptide-encoding DNA abundance (4.5 h post-induction vs induction); higher = less antimicrobial activity (less host growth inhibition)
Conditions: time post-induction: 4.5 h; library: site-saturation at positions 5, 18, 19, 20
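Note: peptides expressed intracellularly from a pBAD plasmid library in pooled LB shake-flask culture, induced with 0.3% L-arabinose, DNA abundance read by NGS, three biological replicates, DESeq2 with apeglm shrinkage.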

Sequence | shrunken log2 fold change
RRIRIRPPRLPRPRPRPDNNPRP | -0.376
RRIRPRPPRLPRPRPRPPCKPRP | 0.19
RRIRDRPPRLPRPRPRPSITPRP | -0.197
RRIRNRPPRLPRPRPRPRCIPRP | -0.256
RRIRHRPPRLPRPRPRPWGTPRP | -0.44
RRIRRRPPRLPRPRPRPDRTPRP | 0.222
RRIRVRPPRLPRPRPRPTCIPRP | -0.372
RRIRWRPPRLPRPRPRPDLGPRP | -0.135
RRIRDRPPRLPRPRPRPPFAPRP | 0.427
RRIRLRPPRLPRPRPRPAHKPRP | 0.384
RRIRMRPPRLPRPRPRPTNRPRP | 0.282
RRIRLRPPRLPRPRPRPYFCPRP | -0.34
RRIRGRPPRLPRPRPRPIWVPRP | -0.0275
RRIRKRPPRLPRPRPRPGWLPRP | 0.593
RRIRSRPPRLPRPRPRPDKFPRP | -0.143
RRIRARPPRLPRPRPRPARPPRP | 0.827
RRIRDRPPRLPRPRPRPSLNPRP | 0.138
RRIRKRPPRLPRPRPRPNRIPRP | 0.0866
RRIRTRPPRLPRPRPRPGYYPRP | -0.442
RRIRCRPPRLPRPRPRPSYYPRP | -0.794
RRIRDRPPRLPRPRPRPIKHPRP | -0.373
RRIRSRPPRLPRPRPRPLQWPRP | -0.0911
RRIRPRPPRLPRPRPRPLVNPRP | -0.549

Sequence | shrunken log2 fold change
RRIRPRPPRLPRPRPRPNYRPRP | -0.451
RRIRTRPPRLPRPRPRPPASPRP | 1.72
RRIRDRPPRLPRPRPRPYHCPRP | -0.00783
RRIRARPPRLPRPRPRPVLCPRP | 0.43
RRIRKRPPRLPRPRPRPTLIPRP | -0.0752
RRIRLRPPRLPRPRPRPMKVPRP | -0.00674
RRIRYRPPRLPRPRPRPYEVPRP | -0.343
RRIRNRPPRLPRPRPRPVTKPRP | 0.0334
RRIRYRPPRLPRPRPRPSWFPRP | -0.942
RRIRARPPRLPRPRPRPPQQPRP | 0.758
RRIRARPPRLPRPRPRPCEFPRP | 0.168
RRIRIRPPRLPRPRPRPIVMPRP | -0.0726
RRIRSRPPRLPRPRPRPRPMPRP | 0.498
RRIRVRPPRLPRPRPRPMQEPRP | -0.0018
RRIRARPPRLPRPRPRPELVPRP | 1.3
RRIRIRPPRLPRPRPRPPMPPRP | -0.0926
RRIRRRPPRLPRPRPRPCCGPRP | 0.0161
RRIRGRPPRLPRPRPRPAGGPRP | 0.714
RRIRDRPPRLPRPRPRPNWAPRP | 0.00788
RRIRMRPPRLPRPRPRPYFSPRP | -0.177
RRIRNRPPRLPRPRPRPYVRPRP | -0.451
RRIRCRPPRLPRPRPRPAHDPRP | 0.031
RRIRCRPPRLPRPRPRPGGNPRP | -0.0575

Sequence | shrunken log2 fold change
RRIRFRPPRLPRPRPRPEHGPRP | 0.00151
RRIRYRPPRLPRPRPRPTCWPRP | 0.0987
RRIRARPPRLPRPRPRPWYDPRP | -0.32
RRIRLRPPRLPRPRPRPLWWPRP | 0.531
RRIRGRPPRLPRPRPRPIRCPRP | 0.261
RRIRRRPPRLPRPRPRPTRYPRP | 0.337
RRIRCRPPRLPRPRPRPLYLPRP | -0.493
RRIRGRPPRLPRPRPRPWIIPRP | -0.121
RRIRCRPPRLPRPRPRPIQCPRP | -0.14
RRIRCRPPRLPRPRPRPEKQPRP | -0.0123
RRIRYRPPRLPRPRPRPAERPRP | 0.0541
RRIRFRPPRLPRPRPRPTTSPRP | 0.0366
RRIRSRPPRLPRPRPRPPERPRP | 0.0652
RRIRNRPPRLPRPRPRPMMNPRP | 0.274
RRIRFRPPRLPRPRPRPYLIPRP | -0.417
RRIRSRPPRLPRPRPRPCYGPRP | -0.523
RRIRARPPRLPRPRPRPRIEPRP | 0.309
RRIRHRPPRLPRPRPRPPGTPRP | 0.0679
RRIRYRPPRLPRPRPRPLCAPRP | -0.356
RRIRARPPRLPRPRPRPFSAPRP | -0.0294
RRIRWRPPRLPRPRPRPVQWPRP | 0.251
RRIRVRPPRLPRPRPRPQFFPRP | -0.0611
RRIRNRPPRLPRPRPRPHSPPRP | -0.415

Sequence | shrunken log2 fold change
RRIRSRPPRLPRPRPRPERQPRP | 0.1
RRIRIRPPRLPRPRPRPHSEPRP | -0.13
RRIRIRPPRLPRPRPRPASIPRP | -0.361
RRIRPRPPRLPRPRPRPGYNPRP | -0.552
RRIRDRPPRLPRPRPRPSALPRP | 0.162
RRIRCRPPRLPRPRPRPRYPPRP | -0.00708
RRIRQRPPRLPRPRPRPWHTPRP | -0.169
RRIRDRPPRLPRPRPRPAQAPRP | -0.0288
RRIRWRPPRLPRPRPRPIPQPRP | 0.254
RRIRTRPPRLPRPRPRPVYPPRP | -0.00118
RRIRNRPPRLPRPRPRPNLMPRP | -0.733
RRIRCRPPRLPRPRPRPYDSPRP | 0.00489
RRIRGRPPRLPRPRPRPVAIPRP | 0.949
RRIRRRPPRLPRPRPRPDQVPRP | 0.0594
RRIRDRPPRLPRPRPRPKKIPRP | 0.0726
RRIRFRPPRLPRPRPRPSLEPRP | -0.0776
RRIRGRPPRLPRPRPRPEAEPRP | 2.74
RRIRSRPPRLPRPRPRPFTIPRP | -0.0987
RRIRPRPPRLPRPRPRPWLQPRP | -0.064
RRIRRRPPRLPRPRPRPAAWPRP | 0.0944
RRIRPRPPRLPRPRPRPTAKPRP | 0.152
RRIRNRPPRLPRPRPRPCLMPRP | -0.299
